Laboratory results: the supplement of paper PMC9233669
This sample holds only a part of the variants without activity.

Assays:
biotinyl-Ile-oxazolone = test: self-aminoacylation, catalytic enhancement (BIO) (fold over background); higher = more active; k-Seq, kA / k0A0; sequences stand for … in GGGAAUGGAUCCACAUCUACGAAUUC…UUCACUGCAGACUUGACGAAGCUG
Outline: (§1)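 Catalytic enhancement equals the median kA over the uncatalyzed rate, the latter read from the low-activity peak of a bimodal Gaussian fit. Values of kA came from fitting each sequence's fraction reacted to a pseudo-first-order model, with 1000 bootstraps. Reacted RNA was captured with streptavidin and quantified by triplicate qPCR and Illumina sequencing after 90 minutes at room temperature with 2–1250 μM biotinyl-aminoacyl-oxazolone and 0.43 μM mutagenized RNA pools bearing a 21-nt variable region.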

biotinyl-Phe-oxazolone = test: self-aminoacylation, catalytic enhancement (BFO) (fold over background); higher = more active; k-Seq, kA / k0A0; sequences stand for … in GGGAAUGGAUCCACAUCUACGAAUUC…UUCACUGCAGACUUGACGAAGCUG
Outline: as §1

biotinyl-Leu-oxazolone = test: self-aminoacylation, catalytic enhancement (BLO) (fold over background); higher = more active; k-Seq, kA / k0A0; sequences stand for … in GGGAAUGGAUCCACAUCUACGAAUUC…UUCACUGCAGACUUGACGAAGCUG
Outline: as §1

biotinyl-Val-oxazolone = test: self-aminoacylation, catalytic enhancement (BVO) (fold over background); higher = more active; k-Seq, kA / k0A0; sequences stand for … in GGGAAUGGAUCCACAUCUACGAAUUC…UUCACUGCAGACUUGACGAAGCUG
Outline: as §1

biotinyl-Trp-oxazolone = test: self-aminoacylation, catalytic enhancement (BWO) (fold over background); higher = more active; k-Seq, kA / k0A0; sequences stand for … in GGGAAUGGAUCCACAUCUACGAAUUC…UUCACUGCAGACUUGACGAAGCUG
Outline: as §1

biotinyl-Met-oxazolone = test: self-aminoacylation, catalytic enhancement (BMO) (fold over background); higher = more active; k-Seq, kA / k0A0; sequences stand for … in GGGAAUGGAUCCACAUCUACGAAUUC…UUCACUGCAGACUUGACGAAGCUG
Outline: as §1

Sequence	self-aminoacylation (biotinyl-Ile-oxazolone)	self-aminoacylation (biotinyl-Phe-oxazolone)	self-aminoacylation (biotinyl-Leu-oxazolone)	self-aminoacylation (biotinyl-Val-oxazolone)	self-aminoacylation (biotinyl-Trp-oxazolone)	self-aminoacylation (biotinyl-Met-oxazolone)
AAAAUUGCUAAUAGUCGCAAG [Fam3.1 aminoacylation ribozyme variant]	1.93	2.58	1.78	1.73	3.04	1.33
AAAUAUGCUAAUAGUCGCAAG [Fam3.1 aminoacylation ribozyme variant]	2.03	2.27	1.44	1.55	2.25	1.45
AAAUUUGCUAAUAGUCGCUAG [Fam3.1 aminoacylation ribozyme variant]	1.73	2.81	1.38	1.58	2.84	1.22
AACUGUGCUAAUAGUCGCAAG [Fam3.1 aminoacylation ribozyme variant]	2.14	2.41	2.35	1.61	2.34	1.81
AACUUUGCUAAUAGCCGCAAG [Fam3.1 aminoacylation ribozyme variant]	2.25	2.77	2.23	1.93	2.14	2.28
AACUUUGCUAAUAGUCGAAAG [Fam3.1 aminoacylation ribozyme variant]	2.25	2.63	2.47	1.87	2.01	2.31
AACUUUGCUAAUAGUCGCAAA [Fam3.1 aminoacylation ribozyme variant]	2.8	13.6	3.39	2.31	2.36	3.32
AACUUUGCUAAUAGUCGUAAG [Fam3.1 aminoacylation ribozyme variant]	1.44	3.97	1.59	1.28	2.33	1.21
AACUUUGCUAAUCGUCGCAAG [Fam3.1 aminoacylation ribozyme variant]	1.93	9.09	2.66	1.89	2.15	2.21
AACUUUGCUCAUAGUCGCAAG [Fam3.1 aminoacylation ribozyme variant]	2.01	10.8	2.47		2.34	2
AACUUUGCUUAUAGUCGCAAG [Fam3.1 aminoacylation ribozyme variant]	2.58	3.75	2.98	2.2	2.98	3.18
AACUUUGUUAAUAGUCGCAAG [Fam3.1 aminoacylation ribozyme variant]	2.29	3.96	2.47	2.06	2.76	2.26
AAGACCCUGGUCAUCGAGUGA [Fam2.1 aminoacylation ribozyme variant]	4.58	21.6	10.2	4.66	9.36	9.05
AAGAUCGCUAAUAGUCGCAAG [Fam3.1 aminoacylation ribozyme variant]	1.86	3.04	2.08	1.51	1.96	1.79
AAGAUUGCGAAUAGUCGCAAG [Fam3.1 aminoacylation ribozyme variant]	1.47	1.72	1.33	1.71	2.46	1.17
AAGAUUGCUAAGAGUCGCAAG [Fam3.1 aminoacylation ribozyme variant]	1.41	1.73	1.3	1.29	2.56	1.41
AAGAUUGCUAAUAGUCUCAAG [Fam3.1 aminoacylation ribozyme variant]	1.1	1.48	1.09	1.08	1.18	0.751
AAGAUUGCUACUAGUCGCAAG [Fam3.1 aminoacylation ribozyme variant]	1.55	2.44	1.73	1.32	1.98	1.27
AAGAUUUCUAAUAGUCGCAAG [Fam3.1 aminoacylation ribozyme variant]	1.81	3.12	1.49	1.45	2.17	1.71
AAGCCUGCUAAUAGUCGCAAG [Fam3.1 aminoacylation ribozyme variant]	1.86	37.3	1.64	1.77	11.1	1.61
AAGCUUGCCAAUAGUCGCAAG [Fam3.1 aminoacylation ribozyme variant]	2.31	3.44	2.23	2.42	3.62	2.48
AAGCUUGCUAAUAGUCACAAG [Fam3.1 aminoacylation ribozyme variant]	1.64	4.35	1.65	1.35	1.28	1.5
AAGCUUGUUAAUAGUCGCAAG [Fam3.1 aminoacylation ribozyme variant]	2.21	3.63	2.38		2.3	2.26
AAGGUUCCUAAUAGUCGCAAG [Fam3.1 aminoacylation ribozyme variant]	1.61	1.62	1.5	1.39	1.43	1.64
AAGGUUGCAAAUAGUCGCAAG [Fam3.1 aminoacylation ribozyme variant]	1.41	1.44	1.2	1.08	1.66	1.02
AAGGUUGCUAAUAAUCGCAAG [Fam3.1 aminoacylation ribozyme variant]	1.41	1.47	1.19	1.02	1.59	1.11
AAGGUUGCUAAUAGUCGAAAG [Fam3.1 aminoacylation ribozyme variant]	1.51	6.22	0.938	1.44	2.33	1.36

Sequence	self-aminoacylation (biotinyl-Ile-oxazolone)	self-aminoacylation (biotinyl-Phe-oxazolone)	self-aminoacylation (biotinyl-Leu-oxazolone)	self-aminoacylation (biotinyl-Val-oxazolone)	self-aminoacylation (biotinyl-Trp-oxazolone)	self-aminoacylation (biotinyl-Met-oxazolone)
AAGGUUGCUAAUAGUCGCAAA [Fam3.1 aminoacylation ribozyme variant]	1.86	1.51	1.63	1.42	1.4	1.28
AAGGUUGCUAAUAGUCGCAAU [Fam3.1 aminoacylation ribozyme variant]	1.99	3.18	1.68	1.46	1.61	1.81
AAGGUUGCUAAUAGUGGCAAG [Fam3.1 aminoacylation ribozyme variant]	0.698	0.712	0.977	0.79	0.638	0.863
AAGGUUGCUAAUCGUCGCAAG [Fam3.1 aminoacylation ribozyme variant]	1.27	3.36	1.09	1.2	2.14	1.07
AAGGUUGCUCAUAGUCGCAAG [Fam3.1 aminoacylation ribozyme variant]	1.46	4.12	1.63	1.25	1.5	1.57
AAGUACGCUAAUAGUCGCAAG [Fam3.1 aminoacylation ribozyme variant]	1.94	6.76	2.38	1.8	3.1	1.59
AAGUAUGCUAAUAGGCGCAAG [Fam3.1 aminoacylation ribozyme variant]	0.992	0.856	1.08	1.18	1.58	0.748
AAGUAUGCUAAUAGUCCCAAG [Fam3.1 aminoacylation ribozyme variant]	1.14	3.66	1.02	1.16	1.54	1.18
AAGUAUGCUAAUAGUCGCAAA [Fam3.1 aminoacylation ribozyme variant]	1.82	3.99	1.26	1.96	1.7	1.67
AAGUAUGCUAAUAGUCGCAAC [Fam3.1 aminoacylation ribozyme variant]	1.22	2.19	1.28	0.942	1.23	1.2
AAGUAUGCUAGUAGUCGCAAG [Fam3.1 aminoacylation ribozyme variant]	1.26	2.22	0.756	1.35	1.12	1.22
AAGUCAGCUAAUAGUCGCAAG [Fam3.1 aminoacylation ribozyme variant]	1.94	5.28	2.22	2	3.06	1.83
AAGUUCGCUAAUAGUCGCAAA [Fam3.1 aminoacylation ribozyme variant]	2.49	4.42	2.63		2.76	2.01
AGGUUUGCCAAUAGUCGCAAG [Fam3.1 aminoacylation ribozyme variant]	2.1	9.52	2.31		3.7	2.31
AUUCACCAAGGUCAUCGGGGG [Fam2.2 aminoacylation ribozyme variant]	2.02	11.9	2.72		2.91	2.23
AUUCACCCAGCUCAUCGGGUG [Fam2.2 aminoacylation ribozyme variant]	2.73	6.9	2.43	2.19		2.49
AUUCACCUAGCUGAUCGGGUG [Fam2.2 aminoacylation ribozyme variant]	2.29	8.31	2.82	2.63		
AUUCACCUGGGUCAUCGGCUG [Fam2.2 aminoacylation ribozyme variant]	2.01	8.1	2.27	2.54		
CAACUUCAAACAAUCGGGCUG [Fam1A.1 aminoacylation ribozyme variant]	2.18	23.8	2.58	2.25	20.1	
CCACACUUCAAGCAGUCGGGC [Fam1B.1 aminoacylation ribozyme variant]	2.15		2.19	2.36		2.5
CCACACUUCAAGCAUUCCGUC [Fam1B.1 aminoacylation ribozyme variant]	3.19		2.51	3	3.14	2.55
CCAGACUUCAAGCAAUCGGGC [Fam1B.1 aminoacylation ribozyme variant]	2.71		2.69	3.13	3.72	
CCCCACUUCGAGCAAUCGGUC [Fam1B.1 aminoacylation ribozyme variant]	2.2	5.48	2.16	2.51	4.05	
CCCCAUUUCAAGCAAUCGGUC [Fam1B.1 aminoacylation ribozyme variant]	2.26	9.72		2.07	7.54	
CUACGUCAAACAAUCGGCCUG [Fam1A.1 aminoacylation ribozyme variant]	2.56		2.69	2.84	4.49	2.29
CUUCACCUAGGUCAUCGGGCG [Fam2.2 aminoacylation ribozyme variant]	2.36		2.75	2.97	4.39	3.57
